{"source": "the PETadex activity labels (doi:10.1128/aem.01698-25)", "proteins": {"B1": {"name": "unnamed (protein)", "chain": "MKFRALLFSASLIAILFNGLTINTVNAQTNDFLYGDQLPDAPELSSRGEYKVGVKTVNLVNPNQVDILNSKEGNDPTYDRPITIEVWYPANVGDDAKTVVYDEVMGTRGDSLRPLTPFTFKGRAYRDATPKTGNKFPLVVVSHGYVGSRYLMTYLTENLASKGYIVAAIDHTDSTFKDANAFQSTLLNRPKDIRFVINEMEKMGAKGSKNNLEGVVDANNTAIIGYSMGGYGVLNVGGAGYSAGLAQFFTGMTGGSTAISVHTAGNAAYEKMIDARIKAIVAFAPWGMERGVWDAEGLKGLKTPTFFIAGSQDDISGYEKGIKAIYEGAVNADRYLLTYMNARHNVAPNPPPAEALAPGLHIDEYYRYAEPSWDQRKMNNINQHFVTAFIGKHLKNQDSTKFLEVQEDSNEKDWTGFKPRSSTGMELLHAQPAN"}, "B2": {"name": "unnamed (protein)", "chain": "MPILNRFAHFQLILCFLISNLVLNAQTGSFVYGDALPDAPELSARGSYAVGVRTLDFVNKGQADVLNSKNGIDPIYDRPLKVEVWYPAQLAEGAKETVVYDEVMGTAHDSLRPLTPITFKGRASRDAAPLTTDGSFPLLVVAHGYVGSRYLMTYLTENLASKGYVVVAIDHTDSTFRDASPFASTLVNRAKDISFVLNQTVNLGKAADNNFLAGLVDSENIGIIGYSMGGYGVLNVAGAGYSDGLVGFFSGMTGGSKAIVDLAMSNPDFPKVDPRIKAVVAFAPWGMERGIWDAEGLKGLKVPTFFIAGSQDDISGYEKGIKAIYTGAVNADRYLLTYENARHNVAPNPPPAESFEPGLHIDEYYRYAEPSWDERKINNVNQHFITAFLGIHLKQKDYSKFLELQENSNEKDWTGFKARSSTGMELLHDKPAP"}}, "data": [{"substrate": "pNP-C8", "assay": "Proxy for plastic degradation [Absorbance @ 405nm]", "conditions": "4 °C", "units": {"Proxy for plastic degradation": "%"}, "values": [{"protein": "B1", "Proxy for plastic degradation": 90}, {"protein": "B2", "Proxy for plastic degradation": 95}]}, {"substrate": "pNP-C8", "assay": "Proxy for plastic degradation [Absorbance @ 405nm]", "conditions": "10 °C", "units": {"Proxy for plastic degradation": "%"}, "values": [{"protein": "B1", "Proxy for plastic degradation": 90}, {"protein": "B2", "Proxy for plastic degradation": 70}]}, {"substrate": "pNP-C8", "assay": "Proxy for plastic degradation [Absorbance @ 405nm]", "conditions": "20 °C", "units": {"Proxy for plastic degradation": "%"}, "values": [{"protein": "B1", "Proxy for plastic degradation": 90}, {"protein": "B2", "Proxy for plastic degradation": 90}]}, {"substrate": "pNP-C8", "assay": "Proxy for plastic degradation [Absorbance @ 405nm]", "conditions": "30 °C", "units": {"Proxy for plastic degradation": "%"}, "values": [{"protein": "B1", "Proxy for plastic degradation": 95}, {"protein": "B2", "Proxy for plastic degradation": 90}]}, {"substrate": "pNP-C8", "assay": "Proxy for plastic degradation [Absorbance @ 405nm]", "conditions": "40 °C", "units": {"Proxy for plastic degradation": "%"}, "values": [{"protein": "B1", "Proxy for plastic degradation": 100}, {"protein": "B2", "Proxy for plastic degradation": 100}]}, {"substrate": "pNP-C8", "assay": "Proxy for plastic degradation [Absorbance @ 405nm]", "conditions": "50 °C", "units": {"Proxy for plastic degradation": "%"}, "values": [{"protein": "B1", "Proxy for plastic degradation": 95}, {"protein": "B2", "Proxy for plastic degradation": 90}]}, {"substrate": "pNP-C8", "assay": "Proxy for plastic degradation [Absorbance @ 405nm]", "conditions": "60 °C", "units": {"Proxy for plastic degradation": "%"}, "values": [{"protein": "B1", "Proxy for plastic degradation": 35}, {"protein": "B2", "Proxy for plastic degradation": 10}]}, {"substrate": "pNP-C8", "assay": "Proxy for plastic degradation [Absorbance @ 405nm]", "conditions": "70 °C", "units": {"Proxy for plastic degradation": "%"}, "values": [{"protein": "B1", "Proxy for plastic degradation": 5}, {"protein": "B2", "Proxy for plastic degradation": 15}]}, {"substrate": "pNP-C8", "assay": "Proxy for plastic degradation [Absorbance @ 405nm]", "conditions": "80 °C", "units": {"Proxy for plastic degradation": "%"}, "values": [{"protein": "B1", "Proxy for plastic degradation": 30}, {"protein": "B2", "Proxy for plastic degradation": 25}]}, {"substrate": "pNP-C8", "assay": "Proxy for plastic degradation [Absorbance @ 405nm]", "conditions": "90 °C", "units": {"Proxy for plastic degradation": "%"}, "values": [{"protein": "B1", "Proxy for plastic degradation": 0}, {"protein": "B2", "Proxy for plastic degradation": 20}]}, {"substrate": "pNP-C8", "assay": "Proxy for plastic degradation [Absorbance @ 405nm]", "conditions": "pH 3", "units": {"Proxy for plastic degradation": "%"}, "values": [{"protein": "B1", "Proxy for plastic degradation": 0}, {"protein": "B2", "Proxy for plastic degradation": 0}]}, {"substrate": "pNP-C8", "assay": "Proxy for plastic degradation [Absorbance @ 405nm]", "conditions": "pH 4", "units": {"Proxy for plastic degradation": "%"}, "values": [{"protein": "B1", "Proxy for plastic degradation": 5}, {"protein": "B2", "Proxy for plastic degradation": 0}]}, {"substrate": "pNP-C8", "assay": "Proxy for plastic degradation [Absorbance @ 405nm]", "conditions": "pH 5", "units": {"Proxy for plastic degradation": "%"}, "values": [{"protein": "B1", "Proxy for plastic degradation": 55}, {"protein": "B2", "Proxy for plastic degradation": 0}]}, {"substrate": "pNP-C8", "assay": "Proxy for plastic degradation [Absorbance @ 405nm]", "conditions": "pH 9", "units": {"Proxy for plastic degradation": "%"}, "values": [{"protein": "B1", "Proxy for plastic degradation": 60}, {"protein": "B2", "Proxy for plastic degradation": 0}]}, {"substrate": "pNP-C8", "assay": "Proxy for plastic degradation [Absorbance @ 405nm]", "conditions": "pH 9.2", "units": {"Proxy for plastic degradation": "%"}, "values": [{"protein": "B1", "Proxy for plastic degradation": 80}, {"protein": "B2", "Proxy for plastic degradation": 0}]}, {"substrate": "pNP-C8", "assay": "Proxy for plastic degradation [Absorbance @ 405nm]", "conditions": "pH 10.2", "units": {"Proxy for plastic degradation": "%"}, "values": [{"protein": "B1", "Proxy for plastic degradation": 55}, {"protein": "B2", "Proxy for plastic degradation": 0}]}]}
